The results in this text go back to article PMC5113044, “Characterisation of a New Family of Carboxyl Esterases with an OsmC Domain” (PLoS ONE, 2016).

The target in data set [1] is T1, ΔEstO (Pseudoalteromonas arctica, UniProt D6CHH1).
T1 construct: gene estO; N-terminal His6 (pDEST17), E. coli BL21-AI
As to the kind of experiment: […] min end-point 4-nitrophenol release, […] nm. It counts as biochemical. The note with it: 1.5 mM substrate.

Data set [2] addresses T2, ΔEstLA (Roseibium aggregatum, UniProt A0NLQ8).
T2 construct: gene SIAM614_09253; N-terminal His6 (pDEST17), E. coli BL21-AI
T2 sequence (A0NLQ8 1-266): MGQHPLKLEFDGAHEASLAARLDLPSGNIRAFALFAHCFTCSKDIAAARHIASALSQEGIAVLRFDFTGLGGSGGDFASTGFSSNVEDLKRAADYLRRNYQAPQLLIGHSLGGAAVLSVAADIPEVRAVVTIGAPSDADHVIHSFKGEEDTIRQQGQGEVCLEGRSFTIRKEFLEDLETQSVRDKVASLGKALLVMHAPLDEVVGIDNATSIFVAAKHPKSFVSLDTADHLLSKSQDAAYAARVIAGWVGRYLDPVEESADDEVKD
As to the kind of experiment: […] min end-point 4-nitrophenol release, […] nm. To be noted: 1.5 mM substrate, gum arabic, universal buffer pH 5-11, 30 °C, or Tris-HCl pH 8.5, 5-50 °C. It counts as biochemical.

Data set [3] deals with T3, ΔEstCAL (Cellulophaga algicola, UniProt E6X8P4).
T3 construct: gene Celal_0286; C-terminal His6 (pEXP5-CT), E. coli BL21-AI
The data set is described as follows: […] min end-point 4-nitrophenol release, […] nm. It counts as biochemical. To be noted: 1.5 mM substrate, gum arabic, universal buffer pH 5-11, 30 °C, or Tris-HCl pH 8.5, 5-50 °C.

The target in data set [4] is T4, ΔEstEM (Sinorhizobium meliloti, UniProt Q92Y44).
T4 construct: gene SMa1898; N-terminal His6 (pDEST17), E. coli BL21-AI
As to the kind of experiment: […] min end-point 4-nitrophenol release, […] nm. The data set is classed as biochemical. To be noted: 1.5 mM substrate.

The target of data set [5] is T5, ΔEstRD (Roseobacter denitrificans, UniProt Q166H3).
T5 construct: gene RD1_2563; C-terminal His6 (pEXP5-CT), E. coli BL21-AI
The data set is described as follows: […] min end-point 4-nitrophenol release, […] nm. The data set is classed as biochemical. The note with it: 1.5 mM substrate.

In data set [6] the target is T6, ΔEstCA (Catenulispora acidiphila, UniProt C7Q579).
T6 construct: gene Caci_7018; C-terminal His6 (pEXP5-CT), E. coli BL21-AI
T6 sequence (C7Q579 1-255): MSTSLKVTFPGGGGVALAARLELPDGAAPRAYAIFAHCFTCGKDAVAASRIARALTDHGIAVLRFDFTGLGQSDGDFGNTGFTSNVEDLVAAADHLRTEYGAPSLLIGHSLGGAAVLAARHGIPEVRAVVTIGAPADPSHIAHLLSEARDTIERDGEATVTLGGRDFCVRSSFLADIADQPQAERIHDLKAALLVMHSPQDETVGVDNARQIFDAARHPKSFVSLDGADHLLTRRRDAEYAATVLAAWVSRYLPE
As to the kind of experiment: […] min end-point 4-nitrophenol release, […] nm. The data set is classed as biochemical. To be noted: 1.5 mM substrate, gum arabic, universal buffer pH 5-11, 30 °C, or Tris-HCl pH 8.5, 5-50 °C.

Substrate in data set [7]: CCCCCCCC(=O)Oc1ccc([N+](=O)[O-])cc1
The data set is described as follows: purified protein. To be noted: 25 mM Tris-HCl pH 8.5, 5% acetonitrile, 0.5% Triton X-100. The data set is classed as biochemical, Rhodothermus marinus.

Substrate in data set [8]: O=C(Oc1ccc([N+](=O)[O-])cc1)c1ccccc1
The data set is described as follows: purified protein. It counts as biochemical, Rhodothermus marinus. The note with it: 25 mM Tris-HCl pH 8.5, 5% acetonitrile, 0.5% Triton X-100.

Substrate in data set [9]: CCCC(=O)Oc1ccc([N+](=O)[O-])cc1
As to the kind of experiment: purified protein. It counts as biochemical, Rhodothermus marinus. The note with it: 25 mM Tris-HCl pH 8.5, 5% acetonitrile, 0.5% Triton X-100.

Substrate in data set [10]: CCCCCCCCCC(=O)Oc1ccc([N+](=O)[O-])cc1
As to the kind of experiment: purified protein. The data set is classed as biochemical, Rhodothermus marinus. The note with it: 25 mM Tris-HCl pH 8.5, 5% acetonitrile, 0.5% Triton X-100.

Substrate in data set [11]: CCCCCCCCCCCC(=O)Oc1ccc([N+](=O)[O-])cc1
As to the kind of experiment: purified protein. To be noted: 25 mM Tris-HCl pH 8.5, 5% acetonitrile, 0.5% Triton X-100. It counts as biochemical, Rhodothermus marinus.

Substrate in data set [12]: CC(=O)Oc1ccc([N+](=O)[O-])cc1
As to the kind of experiment: purified protein. The data set is classed as biochemical, Rhodothermus marinus. The note with it: 25 mM Tris-HCl pH 8.5, 5% acetonitrile, 0.5% Triton X-100.

The mark [13] stands for this setting: gum arabic, universal buffer pH 5-11, 30 °C, or Tris-HCl pH 8.5, 5-50 °C.

T4 sequence (Q92Y44 entry or part of it, stated change not applied): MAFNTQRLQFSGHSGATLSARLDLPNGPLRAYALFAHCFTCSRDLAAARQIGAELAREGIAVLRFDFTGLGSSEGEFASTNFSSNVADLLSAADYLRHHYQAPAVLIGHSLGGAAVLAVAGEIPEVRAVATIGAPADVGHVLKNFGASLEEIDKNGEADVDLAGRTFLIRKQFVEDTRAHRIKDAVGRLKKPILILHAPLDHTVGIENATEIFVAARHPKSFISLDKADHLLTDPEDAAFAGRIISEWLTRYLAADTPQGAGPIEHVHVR
T5 sequence (Q166H3 entry or part of it, stated change not applied): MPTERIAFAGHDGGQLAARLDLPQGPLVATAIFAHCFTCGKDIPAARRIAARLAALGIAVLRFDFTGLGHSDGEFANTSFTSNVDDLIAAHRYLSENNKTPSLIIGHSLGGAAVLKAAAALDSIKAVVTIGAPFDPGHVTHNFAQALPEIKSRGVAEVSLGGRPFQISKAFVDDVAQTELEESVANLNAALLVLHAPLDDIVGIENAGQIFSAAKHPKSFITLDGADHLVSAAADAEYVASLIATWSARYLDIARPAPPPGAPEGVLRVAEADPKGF
T1 sequence (D6CHH1 entry or part of it, stated change not applied): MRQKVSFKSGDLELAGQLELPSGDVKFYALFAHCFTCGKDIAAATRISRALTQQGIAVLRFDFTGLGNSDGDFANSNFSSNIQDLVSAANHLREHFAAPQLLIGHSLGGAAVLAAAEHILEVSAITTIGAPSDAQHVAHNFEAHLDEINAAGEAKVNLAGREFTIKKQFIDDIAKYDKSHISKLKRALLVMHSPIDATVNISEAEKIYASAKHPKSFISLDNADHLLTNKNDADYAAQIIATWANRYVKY
T3 sequence (E6X8P4 entry or part of it, stated change not applied): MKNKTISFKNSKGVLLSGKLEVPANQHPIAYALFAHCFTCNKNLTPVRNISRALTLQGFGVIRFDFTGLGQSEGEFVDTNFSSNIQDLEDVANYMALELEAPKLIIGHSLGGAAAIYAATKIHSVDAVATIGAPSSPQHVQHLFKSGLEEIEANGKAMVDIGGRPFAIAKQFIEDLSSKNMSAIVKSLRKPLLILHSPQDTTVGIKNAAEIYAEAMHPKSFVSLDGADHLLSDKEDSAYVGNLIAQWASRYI

With `O=C(Oc1ccc([N+](=O)[O-])cc1)c1ccccc1` [4NP-benzoate], the “30 min end-point 4-nitrophenol release, 410 nm” value in data set [1] (setting [13]) was “optimum temperature and pH profiles of each enzyme using p-nitrophenyl benzoate as a substrate”; in data set [2], “optimum temperature and pH profiles of each enzyme using p-nitrophenyl benzoate as a substrate”; in data set [3] it was “optimum temperature and pH profiles of each enzyme using p-nitrophenyl benzoate as a substrate”; in data set [4] (setting [13]) it was “optimum temperature and pH profiles of each enzyme using p-nitrophenyl benzoate as a substrate”; in [5] (setting [13]), “optimum temperature and pH profiles of each enzyme using p-nitrophenyl benzoate as a substrate”; in [6], “optimum temperature and pH profiles of each enzyme using p-nitrophenyl benzoate as a substrate”.

As to `CCCCCCCCCC(=O)Oc1ccc([N+](=O)[O-])cc1` [4NP-decanoate], the “30 min end-point 4-nitrophenol release, 410 nm” value in [1] (Tris-HCl pH 8.5) was “ΔEstEM, ΔEstRD, and ΔEstO showed a preference for decanoate (C10)”; in data set [4] (Tris-HCl pH 8.5), “ΔEstEM, ΔEstRD, and ΔEstO showed a preference for decanoate (C10)”; in data set [5] (Tris-HCl pH 8.5) it was “ΔEstEM, ΔEstRD, and ΔEstO showed a preference for decanoate (C10)”.

B1: EstRM (Rhodothermus marinus DSM 4252) (protein)
chain: MQIKTVTFENNRGERLAARLDLPVDTQPVAYALFAHCFTCSKNLKAVTTISRALTTQGYAVLRFDFTGLGESEGDFSETTFATNFEDLRAACRFLSAQYEPPALLIGHSLGGAAVLAVAGEFPEVKAVATIGAPCDPAHVRHLLRPALDTIKTVGEAVVDLGGRPFRIKKQFLEELERVNLEDQVRTMRRPLLLFHSPTDQIVGIENAACLFQAARHPKSFVSLDQADHLLSNSDDAAFVGEVLGAWARRYVGRRPVPDTYRLDPGEARAVVRTGRAHYRTDIAADGHALVADEPAPLGGTDAGPSPYGYLAAALGACTTITLRLYADRKGWPLEAATAYIYHEKVHLNDCTECAEQGIEQTPGGKIDRFTVELTLEGALDAAQRQRLLEIAGRCPVHRTLKSPVVTRTRLRD
notes: full length, 410 residues, His6 tag, E. coli BL21-AI; monomer
The term Km denotes the concentration of substrate that gives half-maximal velocity. On to B1, for which the Km in [7] was 309 ± 70 µM; in data set [8], 292 ± 31 µM; in data set [9], 962 ± 140 µM.

B2: ΔEstRM (Rhodothermus marinus DSM 4252; S72A) (protein)
chain: MQIKTVTFENNRGERLAARLDLPVDTQPVAYALFAHCFTCSKNLKAVTTISRALTTQGYAVLRFDFTGLGEAEGDFSETTFATNFEDLRAACRFLSAQYEPPALLIGHSLGGAAVLAVAGEFPEVKAVATIGAPCDPAHVRHLLRPALDTIKTVGEAVVDLGGRPFRIKKQFLEELERVNLEDQVRTMRRPLLLFHSPTDQIVGIENAACLFQAARHPKSFVSLDQADHLLSNSDDAAFVGEVLGAWARRYVGRR
notes: esterase domain, residues 1-255 of 410, OsmC domain removed; N-terminal His6 (pDEST17, E. coli BL21-AI; crystal text says C-terminal His6); monomer
B2: the Km came to 660 ± 60 µM in data set [7] and 1050 ± 210 µM in data set [9].

B3: ΔEstRM (Rhodothermus marinus DSM 4252) (protein)
chain: MQIKTVTFENNRGERLAARLDLPVDTQPVAYALFAHCFTCSKNLKAVTTISRALTTQGYAVLRFDFTGLGESEGDFSETTFATNFEDLRAACRFLSAQYEPPALLIGHSLGGAAVLAVAGEFPEVKAVATIGAPCDPAHVRHLLRPALDTIKTVGEAVVDLGGRPFRIKKQFLEELERVNLEDQVRTMRRPLLLFHSPTDQIVGIENAACLFQAARHPKSFVSLDQADHLLSNSDDAAFVGEVLGAWARRYVGRR
notes: as for B2
With B3, the Km is 825 ± 130 µM in data set [10]; 981 ± 150 µM in data set [11]; 490 ± 48 µM in data set [7]; 244 ± 12 µM in data set [8]; 3540 ± 800 µM in data set [12]; 1070 ± 170 µM in [9].
